These results are taken from patent US20210324099A1 (Chugai, published 2021).

For orientation: Kd means the constant that tells how readily two partners part at equilibrium. A low value points to tighter binding.

The target in assay [1] is T1, hFcgRIa (human, UniProt P12314 16-292).
T1 construct: extracellular domain; also called human FcγRIa; FcγRI
Description: SPR 25C.

In assay [2] the target is T2, hFcgRIIaH (human, UniProt P12318 34-217).
T2 construct: extracellular domain; also called human FcγRIIa type H (H131)
T2 sequence (looked up): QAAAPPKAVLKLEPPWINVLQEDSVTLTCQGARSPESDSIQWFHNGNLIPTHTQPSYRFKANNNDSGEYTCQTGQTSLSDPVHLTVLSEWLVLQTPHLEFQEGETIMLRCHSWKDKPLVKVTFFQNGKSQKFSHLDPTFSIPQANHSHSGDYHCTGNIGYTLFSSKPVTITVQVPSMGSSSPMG
Nature of the assay: SPR 25C.

Assay [3] has as its target T3, hFcgRIIaR (human, UniProt P12318 34-217).
T3 construct: extracellular domain; also called human FcγRIIa type R (R131)
T3 sequence (looked up): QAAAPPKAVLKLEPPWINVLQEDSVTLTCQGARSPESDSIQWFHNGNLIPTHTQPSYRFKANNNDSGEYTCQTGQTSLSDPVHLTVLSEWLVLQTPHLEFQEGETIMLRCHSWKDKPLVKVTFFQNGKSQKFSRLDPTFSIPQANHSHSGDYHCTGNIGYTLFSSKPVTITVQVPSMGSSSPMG
Nature of the assay: SPR 25C.

In assay [4] the target is T4, hFcgRIIb (human, UniProt P31994 43-217).
T4 construct: extracellular domain; also called human FcγRIIb
T4 sequence (looked up): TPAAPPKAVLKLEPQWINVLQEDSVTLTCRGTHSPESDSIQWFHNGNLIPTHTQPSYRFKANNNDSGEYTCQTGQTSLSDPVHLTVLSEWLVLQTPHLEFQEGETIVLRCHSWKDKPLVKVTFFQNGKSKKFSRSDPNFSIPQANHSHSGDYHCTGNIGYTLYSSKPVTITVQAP
Nature of the assay: SPR 25C.

Assay [5] has as its target T5, hFcgRIIIaF (human, UniProt P08637 17-208).
T5 construct: extracellular domain; also called human FcγRIIIa allotype F158
Description: SPR 25C.

In assay [6] the target is T6, hFcgRIIIaV (human, UniProt P08637 17-208).
T6 construct: extracellular domain; also called human FcγRIIIa allotype V158
T6 sequence (P08637 17-208 F176V): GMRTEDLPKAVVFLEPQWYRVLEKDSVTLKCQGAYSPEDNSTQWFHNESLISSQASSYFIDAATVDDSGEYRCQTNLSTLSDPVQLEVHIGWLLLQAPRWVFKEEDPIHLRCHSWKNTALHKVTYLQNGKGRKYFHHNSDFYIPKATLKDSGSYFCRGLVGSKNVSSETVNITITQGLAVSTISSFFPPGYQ
Nature of the assay: SPR 25C.

Another assay deals with human FcRn (human, UniProt P55899 24-290; P61769 21-119, limits assumed). Nature of the assay: SPR 25C pH 6.0, steady state.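 Note: antibody captured on chip via anti-human Fab-lambda ligand, human FcRn injected as analyte in 50 mM phosphate buffer with 150 mM NaCl and P20.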
Chain of human FcRn (P55899 24-290 limits assumed, chain 1 of 2): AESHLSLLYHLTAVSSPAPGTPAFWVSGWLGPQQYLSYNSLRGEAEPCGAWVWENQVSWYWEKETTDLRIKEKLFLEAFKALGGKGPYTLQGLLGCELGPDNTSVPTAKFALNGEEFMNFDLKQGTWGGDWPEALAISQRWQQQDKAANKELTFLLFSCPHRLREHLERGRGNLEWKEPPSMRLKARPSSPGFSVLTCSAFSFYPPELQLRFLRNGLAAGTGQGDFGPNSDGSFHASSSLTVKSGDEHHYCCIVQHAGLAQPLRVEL
Chain of human FcRn (P61769 21-119 limits assumed, chain 2 of 2): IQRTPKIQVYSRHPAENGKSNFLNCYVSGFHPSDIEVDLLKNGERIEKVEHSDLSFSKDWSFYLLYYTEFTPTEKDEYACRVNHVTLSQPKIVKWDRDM
In assay [7] the target is T1, hFcgRIa. Nature of the assay: SPR 25C; relative to A375-G1T3/B167-Lamlib.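 Note: SPR with antibody captured on an anti-human Fab-lambda chip, human FcγR analyte at 8 nM for FcγRIa or 1000 nM for the others, pH 7.4, FcγR RU per captured antibody unit.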
The target in assay [8] is T2, hFcgRIIaH. Description: SPR 25C; relative to A375-G1T3/B167-Lamlib.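 Note: SPR with antibody captured on an anti-human Fab-lambda chip, human FcγR analyte at 8 nM for FcγRIa or 1000 nM for the others, pH 7.4, FcγR RU per captured antibody unit.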
In assay [9] the target is T3, hFcgRIIaR. Description: SPR 25C; relative to A375-G1T3/B167-Lamlib.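 Note: SPR with antibody captured on an anti-human Fab-lambda chip, human FcγR analyte at 8 nM for FcγRIa or 1000 nM for the others, pH 7.4, FcγR RU per captured antibody unit.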
The target in assay [10] is T4, hFcgRIIb. Nature of the assay: SPR 25C; relative to A375-G1T3/B167-Lamlib.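 Note: SPR with antibody captured on an anti-human Fab-lambda chip, human FcγR analyte at 8 nM for FcγRIa or 1000 nM for the others, pH 7.4, FcγR RU per captured antibody unit.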
For assay [11], the target named is T5, hFcgRIIIaF. Description: SPR 25C; relative to A375-G1T3/B167-Lamlib.
Assay [12] has as its target T6, hFcgRIIIaV. Description: SPR 25C; relative to A375-G1T3/B167-Lamlib.
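Throughout, for binding per 1RU of antibody: biacore SPR with antibody captured on an anti-human Fab lambda chip, human FcγR injected at 1000 nM (FcγRIa at 8 nM) in pH 7.4 phosphate buffer.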

T5 sequence (P08637 17-208): as the sequence (P08637 17-208 F176V) above, with V160F counted along it
T1 sequence (P12314 16-292): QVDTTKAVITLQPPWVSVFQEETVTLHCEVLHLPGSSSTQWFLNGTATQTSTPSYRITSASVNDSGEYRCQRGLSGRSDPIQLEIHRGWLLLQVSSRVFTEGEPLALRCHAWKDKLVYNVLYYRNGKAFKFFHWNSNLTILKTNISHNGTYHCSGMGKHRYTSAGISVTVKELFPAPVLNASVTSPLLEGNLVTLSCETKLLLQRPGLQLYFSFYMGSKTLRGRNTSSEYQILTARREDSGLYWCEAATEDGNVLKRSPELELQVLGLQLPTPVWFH

B1: A375-MY518/B167-Lamlib (antibody, human IgG1, lambda)
heavy: EVQLVESGGGLVKPGGSLRLSCAASGFTFSTFTMNWVRQAPGKGLEWVSSISSKSTYIEYADSFKVRFTISRDNAKNSLYLQMNSLRAEDTAVYYCARYGAKNFLNWVFDYWGQGTLVTVSSASTKGPSVFPLAPSSKSTSGGTAALGCLVKDYFPEPVTVSWNSGALTSGVHTFPAVLQSSGLYSLSSVVTVPSSSLGTQTYICNVNHKPSNTKVDKKVEPKSCDKTHTCPPCPAPELWNGPSVFLFPPKPKDTLMISRTPEVTCVVVDVSDEDPEVKFNWYVDGVEVHNAKTKPREELYNSTYRVVSVLTVLHQDWLNGKEYKCKVSNTALPKPIEKTISKAKGQPREPQVYTLPPSREEMTKNQVSLTCLVKGFYPSDIAVEWESNGQPENNYKTTPPVLDSDGSFFLYSKLTVDKSRWQQGNVFSCSVMHEALHNHYTQKSLSLSP
light: QSALTQPPSASGSPGQTVTISCTGTRYDVGYYEYVSWYQQHPGKAPKLMIYETSKRLSGVPDRFSGSKSGNTASLTVSGLQAEDEADYYCSSYRYEHQVSFGGGTKLTVLGQPKAAPSVTLFPPSSEELQANKATLVCLISDFYPGAVTVAWKADSSPVKAGVETTTPSKQSNNKYAASSYLSLTPEQWKSHRSYSCQVTHEGSTVEKTVAPTECS
notes: copies: 2 + 2
On to B1, for which the “binding per 1RU of antibody” value was determined as 0.002 RU with hFcgRIa [1]; 0.0466 RU with hFcgRIIaH [2]; 0.046 RU with hFcgRIIaR [3]; 0.0482 RU in the assay with hFcgRIIb [4]; 0.0009 RU with hFcgRIIIaF [5]; 0.0015 RU in the assay with hFcgRIIIaV [6]. The Kd with human FcRn amounted to 1270 nM. The relative binding amount worked out at 0.02 with hFcgRIa [7]; 0.82 with hFcgRIIaH [8]; 0.99 with hFcgRIIaR [9]; 4.4 in the assay with hFcgRIIb [10]; 0.04 with hFcgRIIIaF [11]; 0.02 in the assay with hFcgRIIIaV [12].

B2: A375-P253/B167-Lamlib (antibody, human IgG1, lambda)
heavy: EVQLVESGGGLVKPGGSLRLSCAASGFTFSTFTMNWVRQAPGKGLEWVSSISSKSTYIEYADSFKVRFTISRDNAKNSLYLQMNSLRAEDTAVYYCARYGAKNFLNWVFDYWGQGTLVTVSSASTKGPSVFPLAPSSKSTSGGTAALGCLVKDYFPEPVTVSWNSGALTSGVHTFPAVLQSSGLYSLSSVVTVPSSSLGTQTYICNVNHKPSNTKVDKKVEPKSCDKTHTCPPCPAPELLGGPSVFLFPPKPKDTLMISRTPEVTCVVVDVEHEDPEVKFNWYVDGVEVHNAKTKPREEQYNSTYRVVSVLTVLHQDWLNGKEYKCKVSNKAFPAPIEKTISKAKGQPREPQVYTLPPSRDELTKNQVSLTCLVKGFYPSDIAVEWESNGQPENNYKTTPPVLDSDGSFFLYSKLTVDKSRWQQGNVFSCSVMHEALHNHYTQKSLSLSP
light: QSALTQPPSASGSPGQTVTISCTGTRYDVGYYEYVSWYQQHPGKAPKLMIYETSKRLSGVPDRFSGSKSGNTASLTVSGLQAEDEADYYCSSYRYEHQVSFGGGTKLTVLGQPKAAPSVTLFPPSSEELQANKATLVCLISDFYPGAVTVAWKADSSPVKAGVETTTPSKQSNNKYAASSYLSLTPEQWKSHRSYSCQVTHEGSTVEKTVAPTECS
notes: copies: 2 + 2
As for B2, the “binding per 1RU of antibody” value in the assay with hFcgRIa [1] was 0.0937 RU; in the assay with hFcgRIIaH [2] it was 0.0497 RU; in the assay with hFcgRIIaR [3], 0.168 RU; in the assay with hFcgRIIb [4], 0.156 RU; with hFcgRIIIaF [5], 0.0056 RU; with hFcgRIIIaV [6], 0.0019 RU. Besides, the Kd with human FcRn turned out to be 1420 nM. Further, the relative binding amount with hFcgRIa [7] was 1.15; with hFcgRIIaH [8] it was 0.88; in the assay with hFcgRIIaR [9] it was 3.62; with hFcgRIIb [10] it was 14.3; with hFcgRIIIaF [11] it was 0.26; with hFcgRIIIaV [12], 0.03.

B3: A375-MY518a/B167-Lamlib (antibody, human IgG1, lambda)
heavy: EVQLVESGGGLVKPGGSLRLSCAASGFTFSTFTMNWVRQAPGKGLEWVSSISSKSTYIEYADSFKVRFTISRDNAKNSLYLQMNSLRAEDTAVYYCARYGAKNFLNWVFDYWGQGTLVTVSSASTKGPSVFPLAPSSKSTSGGTAALGCLVKDYFPEPVTVSWNSGALTSGVHTFPAVLQSSGLYSLSSVVTVPSSSLGTQTYICNVNHKPSNTKVDKRVEPKSCDKTHTCPPCPAPELWNGPSVFLFPPKPKDTLMISRTPEVTCVVVDVSDEDPEVKFNWYVDGVEVHNAKTKPREELYNSTYRVVSVLTVLHQDWLNGKEYKCKVSNTALPKPIEKTISKAKGQPREPQVYTLPPSREEMTKNQVSLTCLVKGFYPSDIAVEWESNGQPENNYKTTPPVLDSDGSFFLYSKLTVDKSRWQQGNVFSCSVMHEALHNHYTQKSLSLSP
light: QSALTQPPSASGSPGQTVTISCTGTRYDVGYYEYVSWYQQHPGKAPKLMIYETSKRLSGVPDRFSGSKSGNTASLTVSGLQAEDEADYYCSSYRYEHQVSFGGGTKLTVLGQPKAAPSVTLFPPSSEELQANKATLVCLISDFYPGAVTVAWKADSSPVKAGVETTTPSKQSNNKYAASSYLSLTPEQWKSHRSYSCQVTHEGSTVEKTVAPTECS
notes: copies: 2 + 2
B3: the “binding per 1RU of antibody” value with hFcgRIa [1] turned out to be 0.0033 RU; in the assay with hFcgRIIaH [2] it was 0.0479 RU; with hFcgRIIaR [3] it was 0.047 RU; in the assay with hFcgRIIb [4], 0.0489 RU; in the assay with hFcgRIIIaF [5] it was 0.0006 RU; with hFcgRIIIaV [6], 0.0009 RU. The molecule further returned a Kd with human FcRn of 1320 nM. Besides, the relative binding amount in the assay with hFcgRIa [7] was 0.04; in the assay with hFcgRIIaH [8] it was 0.84; with hFcgRIIaR [9] it was 1.01; in the assay with hFcgRIIb [10] it was 4.46; with hFcgRIIIaF [11], 0.03; with hFcgRIIIaV [12], 0.01.

B4: A375-P587/B167-Lamlib (antibody, human IgG1, lambda)
heavy: EVQLVESGGGLVKPGGSLRLSCAASGFTFSTFTMNWVRQAPGKGLEWVSSISSKSTYIEYADSFKVRFTISRDNAKNSLYLQMNSLRAEDTAVYYCARYGAKNFLNWVFDYWGQGTLVTVSSASTKGPSVFPLAPSSKSTSGGTAALGCLVKDYFPEPVTVSWNSGALTSGVHTFPAVLQSSGLYSLSSVVTVPSSSLGTQTYICNVNHKPSNTKVDKKVEPKSCDKTHTCPPCPAPDLLGGDSVFLFPPKPKDTLMISRTPEVTCVVIDVAEEDGEVKFNWYVDGVEVHNAKTKPREEQYNSTYRVVSVLTVLHQDWLNGKEYKCKVSNKALPAPIEKTISKAKGQPREPQVYTLPPSRDELTKNQVSLTCLVKGFYPSDIAVEWESNGQPENNYKTTPPVLDSDGSFFLYSKLTVDKSRWQQGNVFSCSVMHEALHNHYTQKSLSLSP
light: QSALTQPPSASGSPGQTVTISCTGTRYDVGYYEYVSWYQQHPGKAPKLMIYETSKRLSGVPDRFSGSKSGNTASLTVSGLQAEDEADYYCSSYRYEHQVSFGGGTKLTVLGQPKAAPSVTLFPPSSEELQANKATLVCLISDFYPGAVTVAWKADSSPVKAGVETTTPSKQSNNKYAASSYLSLTPEQWKSHRSYSCQVTHEGSTVEKTVAPTECS
notes: copies: 2 + 2
Turning to B4, the “binding per 1RU of antibody” value in the assay with hFcgRIa [1] was 0.0962 RU; with hFcgRIIaH [2], 0.0029 RU; with hFcgRIIaR [3], 0.0371 RU; with hFcgRIIb [4], 0.143 RU; in the assay with hFcgRIIIaF [5], 0.0001 RU; with hFcgRIIIaV [6] it was 0.0001 RU. This molecule also showed a Kd with human FcRn of 1700 nM. For the same molecule, the relative binding amount with hFcgRIa [7] is 1.18; with hFcgRIIaH [8], 0.05; with hFcgRIIaR [9] it was 0.8; with hFcgRIIb [10] it was 13; in the assay with hFcgRIIIaF [11], 0; with hFcgRIIIaV [12], 0.

B5: A375-SCF025/B167-Lamlib (antibody, human IgG1, lambda)
heavy: EVQLVESGGGLVKPGGSLRLSCAASGFTFSTFTMNWVRQAPGKGLEWVSSISSKSTYIEYADSFKVRFTISRDNAKNSLYLQMNSLRAEDTAVYYCARYGAKNFLNWVFDYWGQGTLVTVSSASTKGPSVFPLAPSSKSTSGGTAALGCLVKDYFPEPVTVSWNSGALTSGVHTFPAVLQSSGLYSLSSVVTVPSSSLGTQTYICNVNHKPSNTKVDKKVEPKSCDKTHTCPPCPAPELWNGPSVFLFPPKPKDTLMISRTPEVTCVVVDVSDEDPEVKFNWYVDGVEVHNAKTKPREELYNSTYRVVSVLTVLHQDWLNGKEYKCKVSNTALPKPIEKTISKAKGQRREPQVYTLPPSREEMTKNQVSLTCLVKGFYPSDIAVEWESNGQPENNYKTTPPVLDSDGSFFLYSKLTVKKSRWQQGNVFSCSVMHEALHNHYTQKSLSLSP
light: QSALTQPPSASGSPGQTVTISCTGTRYDVGYYEYVSWYQQHPGKAPKLMIYETSKRLSGVPDRFSGSKSGNTASLTVSGLQAEDEADYYCSSYRYEHQVSFGGGTKLTVLGQPKAAPSVTLFPPSSEELQANKATLVCLISDFYPGAVTVAWKADSSPVKAGVETTTPSKQSNNKYAASSYLSLTPEQWKSHRSYSCQVTHEGSTVEKTVAPTECS
With B5, the “binding per 1RU of antibody” value with hFcgRIa [1] came to 0.0022 RU; in the assay with hFcgRIIaH [2], 0.0514 RU; in the assay with hFcgRIIaR [3] it was 0.0519 RU; with hFcgRIIb [4] it was 0.0512 RU; in the assay with hFcgRIIIaF [5] it was 0.0012 RU; in the assay with hFcgRIIIaV [6] it was 0.0014 RU. Also, the Kd with human FcRn came out at 1100 nM. The relative binding amount with hFcgRIa [7] turned out to be 0.03; in the assay with hFcgRIIaH [8] it was 0.91; with hFcgRIIaR [9], 1.12; with hFcgRIIb [10], 4.67; with hFcgRIIIaF [11], 0.06; with hFcgRIIIaV [12], 0.02.
